According to paper PMC3962013 (Cell, 2014):

B1: C. elegans SYG-1 ectodomain (domain or fragment, UniProt B1Q236 19-551, looked up)
chain: QQLQQRIVEAPKDTLAAVGETAILTCRVEHQQGPVQWMKDDFGLGTDRDKPLPGNKRYRMVGSAANGEYNLEISNVTLFDDDDFACQISESDHAKAVVSSKAKLTVLVRPTPPKIVKSHHSLKAIAGDPITQSCLSRKGKPPPTIGWAIASDEHGKHIVSWLGESRSKFGGIHAKPEISQETVIAHVNETTQVEEGGNNSREDSSIYSIMSNLSFIPRPEDDHKYLICISQHMTFPNKIEVDSVKLSLRYAPQINLTVASKLPLRENGSALLACNVNAKPLDNVKISWYKGNQKLRETGDTLTFETLKMEDHNRDIFCEATNEIGTTRGSIKLNVAFGARIMSTSQDKEVNEGDNAFFHCATLANPAPAIFWTRGDSDEIIGHGENLTLENVRTWQQGNYNCTATVEGFRKQILSHYLHIRGPPTVSMKDEVSASLDEATEIICEISGRPKTNNVRWTVNGKEINFNNGRITVHQYPKPYGKESILKIKDLKEEDFGVYNCSANNGLGFDNRGTLLKKRNILDWIVITAKFDR
B2: SYG-1 Q54 mutant (domain or fragment)
chain: QQLQQRIVEAPKDTLAAVGETAILTCRVEHQQGPVAWMKDDFGLGTDRDKPLPGNKRYRMVGSAANGEYNLEISNVTLFDDDDFACQISESDHAKAVVSSKAKLTVLVRPTPPKIVKSHHSLKAIAGDPITQSCLSRKGKPPPTIGWAIASDEHGKHIVSWLGESRSKFGGIHAKPEISQETVIAHVNETTQVEEGGNNSREDSSIYSIMSNLSFIPRPEDDHKYLICISQHMTFPNKIEVDSVKLSLRYAPQINLTVASKLPLRENGSALLACNVNAKPLDNVKISWYKGNQKLRETGDTLTFETLKMEDHNRDIFCEATNEIGTTRGSIKLNVAFGARIMSTSQDKEVNEGDNAFFHCATLANPAPAIFWTRGDSDEIIGHGENLTLENVRTWQQGNYNCTATVEGFRKQILSHYLHIRGPPTVSMKDEVSASLDEATEIICEISGRPKTNNVRWTVNGKEINFNNGRITVHQYPKPYGKESILKIKDLKEEDFGVYNCSANNGLGFDNRGTLLKKRNILDWIVITAKFDR

What was measured:
[1] = biological target: T1, C. elegans SYG-2 ectodomain (C. elegans, UniProt Q9U3P2 20-1084); assay: ITC + SPR
T1 sequence (looked up): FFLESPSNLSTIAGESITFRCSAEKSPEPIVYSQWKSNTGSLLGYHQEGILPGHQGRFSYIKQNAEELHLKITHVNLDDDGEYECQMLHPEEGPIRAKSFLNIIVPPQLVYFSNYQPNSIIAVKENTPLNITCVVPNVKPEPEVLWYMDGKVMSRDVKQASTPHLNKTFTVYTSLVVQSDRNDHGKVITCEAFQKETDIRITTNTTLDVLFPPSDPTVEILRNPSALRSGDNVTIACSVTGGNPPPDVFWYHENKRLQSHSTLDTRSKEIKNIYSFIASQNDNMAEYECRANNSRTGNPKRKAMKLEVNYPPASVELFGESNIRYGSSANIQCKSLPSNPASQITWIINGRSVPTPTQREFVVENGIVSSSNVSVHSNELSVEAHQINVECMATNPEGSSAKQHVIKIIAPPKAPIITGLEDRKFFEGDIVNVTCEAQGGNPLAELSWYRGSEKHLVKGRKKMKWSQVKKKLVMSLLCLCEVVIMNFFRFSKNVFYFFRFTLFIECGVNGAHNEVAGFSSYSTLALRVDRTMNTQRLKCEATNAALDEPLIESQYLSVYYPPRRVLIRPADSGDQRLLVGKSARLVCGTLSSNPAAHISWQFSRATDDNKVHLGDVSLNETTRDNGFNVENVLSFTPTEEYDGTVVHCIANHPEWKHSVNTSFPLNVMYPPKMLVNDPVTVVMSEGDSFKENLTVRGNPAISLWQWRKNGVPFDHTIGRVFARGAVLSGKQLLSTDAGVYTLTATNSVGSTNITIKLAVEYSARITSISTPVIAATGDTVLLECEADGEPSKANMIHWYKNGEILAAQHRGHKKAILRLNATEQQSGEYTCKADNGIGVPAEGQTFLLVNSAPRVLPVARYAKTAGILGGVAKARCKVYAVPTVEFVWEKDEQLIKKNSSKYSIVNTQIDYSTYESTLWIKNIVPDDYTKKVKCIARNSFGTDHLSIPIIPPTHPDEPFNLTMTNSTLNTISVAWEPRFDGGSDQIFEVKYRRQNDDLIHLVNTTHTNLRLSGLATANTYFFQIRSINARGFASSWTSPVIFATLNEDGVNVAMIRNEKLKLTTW

[2] = biological target: wild type SYG-2 (SPR series with mutants, construct not stated) (C. elegans); assay: SPR

| Binder | Kd [1] [nM] | fold weaker affinity than wild-type SYG-1 [2] [fold] |
| --- | --- | --- |
| B1 | ~600 | – |
| B2 | – | 7 |
